Data as given in US11898183B2, “Programmed microorganisms to attenuate a disease” (priority 2020, dated 2024).

B1: CYP82D (SEQ ID NO: 40) Panax ginseng (protein)
chain: METFLAQLYSTTTIAALFVLLVLYYFSPWTRINKKNVAPEAGGGWPIIGHLHLLGGSKLPHLVFGSMADKYGPIFTVRLGVQRSLVVSSWEMVKDIFTTNDVIVSGRPKFLAAKHLSYNYAMFGFSPYGSFWLELRKITSLQLLSNRRLELLKHVRVSEMEISMRQLYKLWSEKKNGSGRVLMDMKKWFGELNLNVTFRMVAGKRYFGGGAASNDEEARRCRRVVREFFRLLGVVVVADSLPFLRWLDLGGYERAMKETAREMDSIVSVWLEEHRIKSDSSGDDANMEQDFMDVMLSAVKNVDLCGFDAHTVIKATCMVIISSGTDTTTVELTWALCLLLNNRHVLKKAQEELDNVVGKQRRVKESDLNNLIYLQAIVKETLRLYPAGQLGGQREFSDDCTVGGYHVPKRTRLVVNLWKLHRDPRIWSDPTEFRPERFLERHKEIDVKGQHFELIPFGAGRRVCPGITFGLQMFHLVLASLLHGFDISTPSDAPVDMAEGAGLTNAKITPLEILIAPRLSPSLYE
modifications: Panax ginseng
B2: Cinnamte 4 hydroxylase 4 coumarate coenzyme ligase fusion (C4H4CL) (SEQ ID NO: 12) Azospirillum sp. (protein)
chain: MDLLLLEKTLLALFIAATIAITISKLRGKRFKLPPGPIPVPVFGNWLQVGDDLNHRNLTDLAKRFGDIFLLRMGQRNLVVVSSPELAKEVLHTQGVEFGSRTRNVVFDIFTGKGQDMVFTVYGTLAEMRRIMTVPFFTNKVVQQYRFGWEFEAQSVVDDVKKNPEACSSGIVLRRRLQLMMYNIMYRIMFDRRFESEEDPLFVKLKALNGERSRLAQSFEYNYGDFIPILRPFLKGYLKLCKEVKDRRLQLFKDYFVDERKKLGSTKSTTNEGLKCAIDHILDAQQKGEINDDNVLYIVENINVAAIETTLWSIEWGIAELVNHQKIQNKVREEIDRVLGPGHQVTEPDLQKLPYLQAVIKETLRLRMAIPLLVPHMNLHDAKLSGFDIPAESKILVNAWWLANNPAQWKKPEEFRPERFLEEESHVEANGNDFRYLPFGVGRRSCPGIILALPILGITLGRLVQNFELLPPPGQSKIDTAEKGGQFSLHILKHSTIVCKPRSFNGGGGSGGGGSGGGGSMTIQRWWRNRESLNRVLCDLLAGEFARLRPGGSPPAHPHRWPETLPLGPDGVGADSLDLLQLAAALNEALHLHRSGIEDYLLMHRTVGDWLDVCEAALGRFDGALSFRTSGSTGEGKRCEHPLAALEEEADALAALLSGGAEAPRRVVSVVPAHHIYGFLFTVLLPDRLAVPVVDGRGTSPGGLAARLGPGDLVVAHPDWWGALLRSGAALPDGVTGTSSTAPCPPDTARGVRGVGLARLVEVFGSSETAGLGWRESPDAPFRPFPWWRFGDDGRVTRRLADGTVLSATLQDRLSHDEEGFRPSGRLDTVVQVGGVNVSLAGVQAHLAGHPDVEAAAVRLMRPEEGTRLKAFIVPARTAPPREELYRRLTDWIEATLPAPHRPRALAFGPALPVNGMGKPCDWPLATCR
modifications: Depicts the amino acid sequence of the enzyme Cinnamte 4 hydroxylase 4 coumarate coenzyme ligase fusion (C4H4CL)
B3: Glycosyltransferase (UGT) (SEQ ID NO: 48) Barbarea vulgaris (protein, listed as Barbarea vulgaris)
chain: MKSELVFIPYPGIGHLRPTVEVAKLLVDREPRLSISVFILPFISGDEVGASDYISALSAASNDRLRYKVIFTGDQETAEPTKLTLHIENQVPKVRTAVAKLIDEYSKLLDSPKIVGFVLDMFCTSMIDVANEFELPSYMFFTSSAGILAVSFHVQVLYDEKKCNFSETMFEDSEAELILPSLTRPYPVKSLPYALFRTEMLIMHVNLARRFRELKGILVNTVDELEPHALKFLLSGITPPAYPVGPLLHLESNQDDESEDEKRSEIIMWLDEQPASSVVFLCFGSMGGFSEEQTREIAIALERSGHRFLWSLRRESPNIDKELPGEFTNLEEVLPEGFFDRTKGIGKVIGWAPQVAVLENPAIGGFVTHGGWNSVLESLWFGVPTAMWPLYAEQKFNAFVMVEELGLAVEIKKYWRGDLLLGRSAMEIVTADEIERGITCLMQQDSDVRKRVKEMKGKCHVALMDGGSSTLALDKFVEDVTKNI
B4: Glycosyltransferase (UGT) (SEQ ID NO: 42) Mates domestica (protein, listed as Malus domestica)
chain: MKKVELVFIPSPGAGHHLPTLQFVKRLIDRNDRISITILAIQSYFPTTLSSYTKSIAASEPRIRFIDVPQPQDRPPQEMYKSRAQIFSLYIESHVPSVKKIITNLVSSSANSSDSIRVAALVVDLFCVSMIDVAKELNIPSYLFLTSNAGYLAFMLHLPILHEKNQIAVEESDPDWSIPGIVHPVPPRVLPAALTDGRLSAYIKLASRFRETRGIIVNTFVELETHAITLFSNDDRVPPVYPVGPVIDLDDGQEHSNLDQAQRDKIIKWLDDQPQKSVVFLCFGSMGSFGAEQVKEIAVGLEQSGQRFLWSLRMPSPKGIVPSDCSNLEEVLPDGFLERTNGKKGLICGWAPQVEILAHSATGGFLSHCGWNSILESLWHGVPIATWPMYAEQQLNAFRMVRELGMALEMRLDYKAGSADVVGADEIEKAVVGVMEKDSEVRKKVEEMGKMARKAVKDGGSSFASVGRFIEDVIGQN
B5: Glycosyltransferase (UGT) (SEQ ID NO: 44) Lycium barbarum (protein)
chain: MGHLVSTVEMAKQLVDREDQLSITVLIMTLPTETKIPSYTKSLSSNYTSRIRLLELTQPETSVNMGSATHPMKFMSEFITSYKGRVKDAVADMFSSLSSVKLAGFVIDMFCTAMIDVANDFGVPSYLFYTSGAAMLGLQFHFQSLISQNVLSYLDSESEVLIPTYINPVPVKFLPGLILDNDEYSIMFLDLAGRFKETKGIMVNTFVEVESHALKALSDDEKIPPIYPVGPILNLGGGNDGHGEEYDSIMKWLDGQPNSSVVFLCFGSMGSFEEDQVKEVANALESSGYQFLWSLRQPPPKDKLQFPSEFENLEEVLPEGFLQRTKGRGKMIGWAPQVAILSHPSVGGFVSHCGWNSTLESVRSGVPMATWPMYAEQQSNAFQLVKDLEMAVEIKMDYRKDFMTINQPVLVKAEEIGNGIRQLMDLVNKIRAKVRKMKEKSEAAIMEGGSSYVALGNFVETVMKS
modifications: Depcits the amino acid sequence of Glycosyltransferase (UGT of Lycium barbarum)
B6: Glycosyltransferase (UGT) (SEQ ID NO: 46) Cicer arietinum (protein, listed as Cicer arietinum)
chain: MKKIEVVFIPSPGVGHLISTLEFANLLINRNNRLNITVLVINFPKTVEKQTNYSLTESENLHVINLPQTTTHVPSTSDVGNSISALVETQKSNVKQAVSNLTGTLAAFVVDMFCTTMIDVANELGVPSLVFFTSGVAFLGLMLHLHTIWEQQDTELLLQQDELDIPSFANPVATNTLPTLVLRKEWESSFIKYGNGLKKASGIIVNSFHELEPHAVRSFLEDPTLRDLPIYPVGPILNPKSNVDSDDVIKWLDDQPPSSVVFLCFGSMGTFDEEQVREIALAIERSGVRFLWSLRKPQPQGTMVPPSDYTLSQMLEVLPEGFLDRTANIGRVIGWAPQVQVLAHQATGGFVSHCGWNSTLESIYYGVPIATWPLFAEQQTNAFELVRELKIAVEIALDYRLEFDIGRNYLLDADKIERGIRGVLDKDGEVRKKVKEMSQKSRNVLLEGGSSYTYLGQLIDYITNQV
B7: 2-Deoxy-d-ribose-5-phosphate aldolase (DERA) (SEQ ID NO: 50) Desulfatibacillum aliphaticivorans (protein)
chain: MTGPKICVVGACNIDLISYVERLPVLGETLHGKKFSMGFGGKGANQAVMAAKLGGEVAMVGKLGRDVFGENTLANFKKLGVNVSHVHFTEEAFSGVAPIAVDDNGANSIIIVTGASDLLSAEEIRAAENAIAKSKVLVCQLEIPMEQNLEALRIARKNNVPTIFNPAPARPGLPDELYQLSDIFCPNESETEILTGMPVETMEQAEQAAKALLERGPKTVILTLGERGCLLVDANGARHIPTRKVEAIDTTGAGDCFVGSLAFFLAAGKSLEDAINRANKIAAVSVCGQGTQSSFPGASELDPEILSDIQPAESQAPAMSAKDLAQYIDHTLLKPEAPLSAFDKICEEAILHQFRSVCVNSCKISYIAKKLKGTGVDACAVIGFPLGAMSTAAKAFEAKQAVMDGAAELDMVINVGALKSGDFDAVFDDIKAVRDAAPLPIILKVIIETCLLTDEEKARACRIAKAADADFVKTSTGFSTGGATLEDIALMRDTVGPYMGVKASGGIKDAKTAIAMIEAGATRIGAGAGVEIVSGLQSDADGSY
modifications: Depicts the amino acid sequence of 2-Deoxy-d- ribose-5-phosphate aldolase (DERA) of Desulfatibacillum aliphaticivorans

System: pathway specific substrates
Test: Enzyme functionality of pathway enzyme homologs and fusion constructs in lysed E. coli cell extracts, product by HPLC
Format: biochemical, E. coli BL21
Conditions: recombinant E. coli BL21 clone, lysed cell extract
Procedure: As per one of the possible implementations of the present disclosure, two proteins—cinnamate-4-hydroxylate (C4H) and 4-coumaroyl CoA-ligase (4CL) were expressed as one fusion protein. Also, other two proteins which were expressed as one fusion protein were hydroxycinnamoyl-CoA quinate hydroxycinnamoyltransferase (HCT) and p-coumaroyl quinate 3′-hydroxylase (HCTC3H). The fusion gene and the corresponding fusion protein was prepared using the following method. […] The enzyme fusion constructs were made for the selected genes (Table 5). Pathway genes and the fusion constructs were individually cloned in E. coli expression vector pET28+ under T7 promoter and transformed in E. coli BL21 cells. Recombinant bacterial cells were induced with IPTG and enzyme functionality was tested with pathway specific substrates (Table 5) using lysed E. coli cell extracts. HPLC analysis was carried out to quantify the product formation and in turn shortlisting of efficient enzymes for functional pathway assembly towards Etoposide in E. coli.
The E. coli transformants were grown overnight at 37° C. in 1 ml of M9 minimal media containing ampicillin (100 mg/1), in 96-well format. The next day, 150 μl of each culture was inoculated into 3 ml M9 minimal media containing ampicillin (100 mg/1), IPTG 0.1 mM in 24-well format, and incubated at 30° C. and 200 rpm for ˜20 hours. The following day, cells were spun down and pellets were resuspended in 100 μl of lysis buffer containing 10 mM Tris-HCl pH 8, 5 mM MgCl2, 1 mM CaCl2) and complete mini protease inhibitor EDTA-free (3 tablets/100 ml) (Hoffmann-La Roche, Basel, Switzerland) and frozen at −80° C. for at least 15 minutes to promote cell lysis. Pellets were thawed at room temperature and 50 μl of DNase mix (1 μl of 1.4 mg/ml DNase in H2O (˜80000 u/ml), 1.2 μl of MgCl2 500 mM and 47.8 μl of 4×PBS buffer solution) was added to each well. Plates were shaken at 500 rpm for 5 min at room temperature to allow degradation of genomic DNA. Plates were spun down at 4000 rpm for 30 min at 4° C. and six μl of the lysates were used in in vitro using appropriate substrates for enzymes as per Table 6. In each case, the resulting compounds were measured by HPLC. Results were analysed in comparison with the lysates expressing the corresponding controls (the empty plasmid). […]

[1] = substrate tested: Desmethylepipodophyllotoxin

Row | Molecule | Enzyme activity in terms of product formation (in %) [1] | further results
1 | B1 | – | Enzyme activity in terms of product formation (in %) (substrate tested: Deoxypodophyllotoxin): 93%
2 | B2 | – | Enzyme activity in terms of product formation (in %) (substrate tested: Cinnamate): 97%
3 | B3 | 43% | –
4 | B4 | 54% | –
5 | B5 | 67% | –
6 | B6 | 97% | –
7 | B7 | – | Enzyme activity in terms of product formation (in %) (substrate tested: Desmethylepipodophyllotoxin glucopyranoside): 83%
